Laboratory results as given in ChEMBL document CHEMBL1908105, “UDP-glucuronosyltransferases and clinical drug-drug interactions” (Pharmacol Ther, 2005).

Tests used:
[1] = Inhibition of AZT glucuronidation by human UGT enzymes from liver microsomes; design: species or system Microsome
[2] = target: T1, UDP-glucuronosyltransferase 2B7 (Homo sapiens, UniProt P16662); assay: (§1) Drug glucuronidation reaction catalyzed by human recombinant UGT2B7
T1 sequence (P16662 whole entry): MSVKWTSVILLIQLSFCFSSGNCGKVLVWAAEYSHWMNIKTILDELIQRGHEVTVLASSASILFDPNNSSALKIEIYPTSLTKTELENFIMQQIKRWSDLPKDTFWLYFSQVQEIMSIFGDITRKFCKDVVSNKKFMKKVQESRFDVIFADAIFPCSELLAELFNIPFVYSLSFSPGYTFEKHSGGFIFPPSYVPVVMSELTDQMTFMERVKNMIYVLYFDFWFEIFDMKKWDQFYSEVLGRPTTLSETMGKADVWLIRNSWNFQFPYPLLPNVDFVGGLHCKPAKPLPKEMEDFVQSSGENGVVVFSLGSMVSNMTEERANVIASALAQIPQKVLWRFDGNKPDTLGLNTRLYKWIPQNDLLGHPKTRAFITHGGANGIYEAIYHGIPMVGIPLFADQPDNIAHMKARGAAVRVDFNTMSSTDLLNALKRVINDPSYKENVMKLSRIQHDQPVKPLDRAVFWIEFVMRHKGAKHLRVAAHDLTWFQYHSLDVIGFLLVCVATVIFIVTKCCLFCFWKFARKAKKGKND

[3] = target: T2, UGT2B7 (Homo sapiens, UniProt P16662); assay: as §1; settings: recombinant UGT2B7
T2 sequence (P16662 whole entry): T1 sequence (P16662 whole entry)

[4] = target: T3, UDP-glucuronosyltransferase 1A3 (Homo sapiens, UniProt P35503); assay: (§2) Drug glucuronidation reaction catalyzed by human recombinant UGT1A3
T3 sequence (P35503 whole entry): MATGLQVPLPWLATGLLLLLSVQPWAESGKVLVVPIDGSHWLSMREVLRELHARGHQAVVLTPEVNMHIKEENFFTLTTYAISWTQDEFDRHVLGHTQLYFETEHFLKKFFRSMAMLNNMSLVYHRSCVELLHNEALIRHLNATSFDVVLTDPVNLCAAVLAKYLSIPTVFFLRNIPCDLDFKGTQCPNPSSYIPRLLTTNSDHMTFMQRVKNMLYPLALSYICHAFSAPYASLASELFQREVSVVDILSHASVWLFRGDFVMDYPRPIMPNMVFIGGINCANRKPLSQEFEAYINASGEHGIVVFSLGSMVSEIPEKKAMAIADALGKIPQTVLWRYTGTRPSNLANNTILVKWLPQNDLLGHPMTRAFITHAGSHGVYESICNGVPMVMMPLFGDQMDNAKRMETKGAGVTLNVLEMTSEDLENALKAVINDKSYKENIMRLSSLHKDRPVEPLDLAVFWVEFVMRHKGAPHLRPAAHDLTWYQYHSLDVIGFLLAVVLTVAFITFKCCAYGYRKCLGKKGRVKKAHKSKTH

[5] = target: UGT1A3 (Homo sapiens, UniProt P35503); assay: as §2; settings: recombinant UGT1A3
[6] = substrate: CCC[S+]([O-])CCCN(CC)CC(O)COc1ccc(C#N)cc1; assay: as §1
[7] = substrate: O=C1[C@H](CC[C@H](O)c2ccc(F)cc2)[C@@H](c2ccc(O)cc2)N1c1ccc(F)cc1; assay: as §1
[8] = substrate: COc1ccc(Cl)cc1[C@]1(F)C(=O)Nc2cc(C(F)(F)F)ccc21; assay: as §1
[9] = substrate: CS(=O)(=O)c1ccc(C2=C(c3ccccc3)C(=O)OC2O)cc1; assay: as §1
[10] = substrate: C=CCN1CC[C@]23c4c5ccc(O)c4O[C@H]2[C@@H](O)C=C[C@H]3[C@H]1C5; assay: as §1
[11] = substrate: CC(C(=O)O)c1cccc(C(=O)c2ccccc2)c1; assay: as §1
[12] = substrate: C=CC[C@@H]1/C=C(\C)C[C@H](C)C[C@H](OC)[C@H]2O[C@@](O)(C(=O)C(=O)N3CCCC[C@H]3C(=O)O[C@H](/C(C)=C/[C@@H]3CC[C@@H](O)[C@H](OC)C3)[C@H](C)[C@@H](O)CC1=O)[C@H](C)C[C@@H]2OC; assay: as §1
[13] = substrate: NC(=O)N1c2ccccc2C=Cc2ccccc21; assay: as §1
[14] = substrate: CC(C)Cc1ccc(C(C)C(=O)O)cc1; assay: as §1
[15] = substrate: COc1cccc2c1C(=O)c1c(O)c3c(c(O)c1C2=O)C[C@@](O)(C(=O)CO)C[C@@H]3O[C@H]1C[C@H](N)[C@@H](O)[C@H](C)O1; assay: as §1
[16] = substrate: CO[C@]12CC[C@@]3(C[C@@H]1[C@](C)(O)C(C)(C)C)[C@H]1Cc4ccc(O)c5c4[C@@]3(CCN1CC1CC1)[C@H]2O5; assay: as §1
[17] = substrate: O=C1Nc2ccc(Cl)cc2C(c2ccccc2)=N[C@H]1O; assay: not read
[18] = substrate: O=C1Nc2ccc(Cl)cc2C(c2ccccc2)=N[C@@H]1O; assay: not read
[19] = substrate: Cc1c(Cl)cccc1Nc1ncccc1C(=O)O; assay: not read
[20] = substrate: CC(=O)Nc1ccc(O)cc1; assay: (§3) Drug glucuronidation reaction catalyzed by human recombinant UGT1A9
[21] = substrate: CCC[S+]([O-])CCCN(CC)CC(O)COc1ccc(C#N)cc1; assay: as §3
[22] = substrate: COc1c(C)c2c(c(O)c1C/C=C(\C)CCC(=O)O)C(=O)OC2; assay: as §3
[23] = substrate: CCc1c2c(nc3ccc(O)cc13)-c1cc3c(c(=O)n1C2)COC(=O)[C@]3(O)CC; assay: as §3
[24] = substrate: Cc1ccc(C(=O)c2cc(O)c(O)c([N+](=O)[O-])c2)cc1; assay: as §3
[25] = substrate: CN1CC[C@H](c2c(O)cc(O)c3c(=O)cc(-c4ccccc4Cl)oc23)[C@H](O)C1; assay: as §3
[26] = substrate: O=C(c1ccc(OCCN2CCCCC2)cc1)c1c(-c2ccc(O[C@H]3O[C@H](C(=O)O)[C@@H](O)[C@H](O)[C@H]3O)cc2)sc2cc(O)ccc12; assay: as §3
[27] = substrate: CCN(CC)C(=O)/C(C#N)=C/c1cc(O)c(O)c([N+](=O)[O-])c1; assay: as §3
[28] = substrate: O=C(c1ccc(OCCN2CCCCC2)cc1)c1c(-c2ccc(O)cc2)sc2cc(O[C@@H]3O[C@H](C(=O)O)[C@@H](O)[C@H](O)[C@H]3O)ccc12; assay: as §3
[29] = substrate: CN1CC[C@]23c4c5ccc(O[C@@H]6O[C@H](C(=O)O)[C@@H](O)[C@H](O)[C@H]6O)c4O[C@H]2[C@@H](O)C=C[C@H]3[C@H]1C5; assay: as §3
[30] = substrate: CC(C)c1cccc(C(C)C)c1O; assay: not read
[31] = substrate: O=C(c1ccc(OCCN2CCCCC2)cc1)c1c(-c2ccc(O[C@H]3O[C@H](C(=O)O)[C@@H](O)[C@H](O)[C@H]3O)cc2)sc2cc(O)ccc12; assay: (§4) Drug glucuronidation reaction catalyzed by human recombinant UGT1A10
[32] = substrate: CN1CC[C@]23c4c5ccc(O[C@@H]6O[C@H](C(=O)O)[C@@H](O)[C@H](O)[C@H]6O)c4O[C@H]2[C@@H](O)C=C[C@H]3[C@H]1C5; assay: as §4
[33] = substrate: COc1c(C)c2c(c(O)c1C/C=C(\C)CCC(=O)O)C(=O)OC2; assay: (§5) Drug glucuronidation reaction catalyzed by human recombinant UGT1A8
[34] = substrate: O=C1CC[C@@]2(O)[C@H]3Cc4ccc(O)c5c4[C@@]2(CCN3CC2CC2)[C@H]1O5; assay: as §5
[35] = substrate: O=C(c1ccc(OCCN2CCCCC2)cc1)c1c(-c2ccc(O[C@H]3O[C@H](C(=O)O)[C@@H](O)[C@H](O)[C@H]3O)cc2)sc2cc(O)ccc12; assay: as §5
[36] = substrate: O=C(c1ccc(OCCN2CCCCC2)cc1)c1c(-c2ccc(O)cc2)sc2cc(O[C@@H]3O[C@H](C(=O)O)[C@@H](O)[C@H](O)[C@H]3O)ccc12; assay: as §5
[37] = substrate: CN1CC[C@]23c4c5ccc(O[C@@H]6O[C@H](C(=O)O)[C@@H](O)[C@H](O)[C@H]6O)c4O[C@H]2[C@@H](O)C=C[C@H]3[C@H]1C5; assay: as §5

CC(C(=O)O)c1ccc(-c2ccccc2)c(F)c1 (stereo not drawn) [FLURBIPROFEN]
Ki [1]: 50 µM
Vmax [2]: 315 pmol/min/mg protein
Km [3]: 28 µM
Vmax [4]: 45 pmol/min/mg protein
Km [5]: 90 µM

B1: UDP-glucuronosyltransferase 2B7 (Homo sapiens) (protein)
chain: T1 sequence (P16662 whole entry)
Km [6]: 970 µM
Vmax [6]: 2.1e-05 µmol/min/mg
Km [7]: 21 µM
Vmax [7]: 5e-05 µmol/min/mg
Km [8]: 14 µM
Vmax [8]: 0.00029 µmol/min/mg
Km [9]: 42 µM
Vmax [9]: 4.7e-05 µmol/min/mg
Km [10]: 260 µM
Vmax [10]: 0.000461 µmol/min/mg
Km [11]: 112 µM
Vmax [11]: 0.00045 µmol/min/mg
Km [12]: 449 µM
Vmax [12]: 0.000588 µmol/min/mg
Km [13]: 214 µM
Vmax [13]: 1e-06 µmol/min/mg
Km [14]: 55 µM
Vmax [14]: 0.000477 µmol/min/mg
Km [15]: 149 µM
Vmax [15]: 9.9e-05 µmol/min/mg
Km [16]: 24 µM
Vmax [16]: 2.6e-05 µmol/min/mg
Km [17]: 203 µM
Vmax [17]: 2e-06 µmol/min/mg
Km [18]: 333 µM
Vmax [18]: 7e-06 µmol/min/mg
Km [19]: 64 µM
Vmax [19]: 0.00022 µmol/min/mg

B2: UDP-glucuronosyltransferase 1A9 (Homo sapiens) (protein)
chain: MACTGWTSPLPLCVCLLLTCGFAEAGKLLVVPMDGSHWFTMRSVVEKLILRGHEVVVVMPEVSWQLGRSLNCTVKTYSTSYTLEDLDREFKAFAHAQWKAQVRSIYSLLMGSYNDIFDLFFSNCRSLFKDKKLVEYLKESSFDAVFLDPFDNCGLIVAKYFSLPSVVFARGILCHYLEEGAQCPAPLSYVPRILLGFSDAMTFKERVRNHIMHLEEHLLCHRFFKNALEIASEILQTPVTEYDLYSHTSIWLLRTDFVLDYPKPVMPNMIFIGGINCHQGKPLPMEFEAYINASGEHGIVVFSLGSMVSEIPEKKAMAIADALGKIPQTVLWRYTGTRPSNLANNTILVKWLPQNDLLGHPMTRAFITHAGSHGVYESICNGVPMVMMPLFGDQMDNAKRMETKGAGVTLNVLEMTSEDLENALKAVINDKSYKENIMRLSSLHKDRPVEPLDLAVFWVEFVMRHKGAPHLRPAAHDLTWYQYHSLDVIGFLLAVVLTVAFITFKCCAYGYRKCLGKKGRVKKAHKSKTH
Km [20]: 20900 µM
Vmax [20]: 0.0063 µmol/min/mg
Km [21]: 1060 µM
Vmax [21]: 9.2e-05 µmol/min/mg
Km [22]: 291 µM
Vmax [22]: 0.00838 µmol/min/mg
Km [23]: 13 µM
Vmax [23]: 2e-05 µmol/min/mg
Km [24]: 66 µM
Vmax [24]: 0.00048 µmol/min/mg
Km [25]: 37 µM
Vmax [25]: 5.6e-05 µmol/min/mg
Km [26]: 13 µM
Vmax [26]: 0.00025 µmol/min/mg
Km [27]: 10 µM
Vmax [27]: 0.0018 µmol/min/mg
Km [28]: 25 µM
Vmax [28]: 0.00032 µmol/min/mg
Km [29]: 37400 µM
Vmax [29]: 3.2e-05 µmol/min/mg
Km [18]: 12 µM
Vmax [18]: 3e-06 µmol/min/mg
Km [30]: 37 µM
Vmax [30]: 0.0028 µmol/min/mg

B3: UDP-glucuronosyltransferase 1A10 (Homo sapiens) (protein)
chain: MARAGWTSPVPLCVCLLLTCGFAEAGKLLVVPMDGSHWFTMQSVVEKLILRGHEVVVVMPEVSWQLERSLNCTVKTYSTSYTLEDQNREFMVFAHAQWKAQAQSIFSLLMSSSSGFLDLFFSHCRSLFNDRKLVEYLKESSFDAVFLDPFDTCGLIVAKYFSLPSVVFTRGIFCHHLEEGAQCPAPLSYVPNDLLGFSDAMTFKERVWNHIVHLEDHLFCQYLFRNALEIASEILQTPVTAYDLYSHTSIWLLRTDFVLDYPKPVMPNMIFIGGINCHQGKPLPMEFEAYINASGEHGIVVFSLGSMVSEIPEKKAMAIADALGKIPQTVLWRYTGTRPSNLANNTILVKWLPQNDLLGHPMTRAFITHAGSHGVYESICNGVPMVMMPLFGDQMDNAKRMETKGAGVTLNVLEMTSEDLENALKAVINDKSYKENIMRLSSLHKDRPVEPLDLAVFWVEFVMRHKGAPHLRPAAHDLTWYQYHSLDVIGFLLAVVLTVAFITFKCCAYGYRKCLGKKGRVKKAHKSKTH
Km [31]: 5 µM
Vmax [31]: 0.00055 µmol/min/mg
Km [32]: 12600 µM
Vmax [32]: 0.000629 µmol/min/mg

B4: UDP-glucuronosyltransferase 1A8 (Homo sapiens) (protein)
chain: MARTGWTSPIPLCVSLLLTCGFAEAGKLLVVPMDGSHWFTMQSVVEKLILRGHEVVVVMPEVSWQLGKSLNCTVKTYSTSYTLEDLDREFMDFADAQWKAQVRSLFSLFLSSSNGFFNLFFSHCRSLFNDRKLVEYLKESSFDAVFLDPFDACGLIVAKYFSLPSVVFARGIACHYLEEGAQCPAPLSYVPRILLGFSDAMTFKERVRNHIMHLEEHLFCQYFSKNALEIASEILQTPVTAYDLYSHTSIWLLRTDFVLDYPKPVMPNMIFIGGINCHQGKPLPMEFEAYINASGEHGIVVFSLGSMVSEIPEKKAMAIADALGKIPQTVLWRYTGTRPSNLANNTILVKWLPQNDLLGHPMTRAFITHAGSHGVYESICNGVPMVMMPLFGDQMDNAKRMETKGAGVTLNVLEMTSEDLENALKAVINDKSYKENIMRLSSLHKDRPVEPLDLAVFWVEFVMRHKGAPHLRPAAHDLTWYQYHSLDVIGFLLAVVLTVAFITFKCCAYGYRKCLGKKGRVKKAHKSKTH
Km [33]: 298 µM
Vmax [33]: 0.0326 µmol/min/mg
Km [34]: 1550 µM
Vmax [34]: 0.000495 µmol/min/mg
Km [35]: 59 µM
Vmax [35]: 0.002 µmol/min/mg
Km [36]: 8 µM
Vmax [36]: 0.00061 µmol/min/mg
Km [37]: 26000 µM
Vmax [37]: 1.3e-05 µmol/min/mg
Km [30]: 412 µM
Vmax [30]: 0.00382 µmol/min/mg
